Source: the supplement of paper PMC7877785
± gives the uncertainty stated by the source.

Experiment: self-splicing fitness, log relative to wild type (ln ratio); higher = more splicing; Tetrahymena group I intron in knt gene, E. coli kanamycin selection, DiMSum; sequences stand for … in CUCUCU…GGAGGGAAAAGUUAUCAGGCAUGCACCUGGUAGCUAGUCUUUAAACCAAUAGAUUGCAUCGGUUUAAAAGGCAAGACCGUCAAAUUGCGGGAAAGGGGUCAACAGCCGUUCAGUACCAAGUCUCAGGGGAAACUUUGAGAUGGCCUUGCAAAGGGUAUGGUAAUAAGCUGACGGACAUGGUCCUAACCACGCAGCCAAGUCCUAAGUCAACAGAUCUUCUGUUGAUAUGGAUGCAGUUCACAGACUAAAUGUCGGUCGGGGAAGAUGUAUUCUUCUCAUAAGAUAUAGUCGGACCUCUCCUUAAUGGGAGCUAGCGGAUGAAGUGAUGCAACACUGGAGCCGCUGGGAACUAAUUUGUAUGCGAAAGUAUAUUGAUUAGUUUUGGAGUACUCGUGGUCG
Summary of the method: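 The eight P1ex-region nucleotides of an intron in the knt kanamycin-resistance gene on pET-22b(+) were all randomised and the library put into E. coli BL21(DE3). Six replicate transformations were grown overnight at 37°C or 30°C on LB agar with or without 25 μg/mL kanamycin, together with 100 μg/mL carbenicillin, 50 μM IPTG and 0.2% rhamnose. Colonies were pooled and amplicon-sequenced on an Illumina HiSeq 2500. Fitness from DiMSum is the error-weighted combination of wild-type-normalised replicate fold changes, kanamycin over none.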

Sequence | self-splicing fitness (ln) (30 °C) | self-splicing fitness (ln) (37 °C)
CAGCAGCAAUAUUACGGGUA | -3.24 ± 0.19 | -1.73 ± 0.13
CAGCAGCAAUAUUACGGUAU | -3.51 ± 0.15 | -2.62 ± 0.13
CAGCAGCAAUAUUACGGUUG | -3.04 ± 0.11 | -2.62 ± 0.23
CAGCAGCAAUAUUACGUAAA | -3.26 ± 0.14 | -1.95 ± 0.15
CAGCAGCAAUAUUACGUAUA | -2.42 ± 0.18 | -2.81 ± 0.29
CAGCAGCAAUAUUACGUGGU | -3.99 ± 0.19 | -2.93 ± 0.18
CAGCAGCAAUAUUACGUUCG | -0.171 ± 0.056 | 0.0532 ± 0.076
CAGGAGCAAUAUUACGACCU | -1.36 ± 0.13 | -0.563 ± 0.17
CAGGAGCAAUAUUACGAGAA |  | -0.522 ± 0.22
CAGGAGCAAUAUUACGAUAG | -1.19 ± 0.12 | -0.223 ± 0.13
CAGGAGCAAUAUUACGAUCG | -0.865 ± 0.08 | 0.258 ± 0.1
CAGGAGCAAUAUUACGAUGG | -0.317 ± 0.091 | 0.171 ± 0.13
CAGGAGCAAUAUUACGAUUU | -3.81 ± 0.28 | -0.961 ± 0.13
CAGGAGCAAUAUUACGCACA | -2.48 ± 0.24 | -1.88 ± 0.23
CAGGAGCAAUAUUACGCAUG | -3.78 ± 0.28 | -1.89 ± 0.2
CAGGAGCAAUAUUACGCCAU | -2.73 ± 0.33 | -1.55 ± 0.41
CAGGAGCAAUAUUACGCCGG |  | -2.22 ± 0.24
CAGGAGCAAUAUUACGCGGG | -0.771 ± 0.15 | -1.84 ± 0.14
CAGGAGCAAUAUUACGGAAG | -2.2 ± 0.13 | -1.67 ± 0.14
CAGGAGCAAUAUUACGGACU | -1.86 ± 0.14 | -1.75 ± 0.3
CAGGAGCAAUAUUACGGAUA |  | -0.862 ± 0.41
CAGGAGCAAUAUUACGGCCA |  | 0.122 ± 0.3
CAGGAGCAAUAUUACGGUAA |  | -2.51 ± 0.44
CAGGAGCAAUAUUACGGUAG | -0.725 ± 0.12 | -0.902 ± 0.13
CAGGAGCAAUAUUACGGUGC | -2.68 ± 0.26 | -1.76 ± 0.28

Sequence | self-splicing fitness (ln) (30 °C) | self-splicing fitness (ln) (37 °C)
CAGGAGCAAUAUUACGUAAG | -0.111 ± 0.097 | 0.23 ± 0.12
CAGGAGCAAUAUUACGUACA | -2.55 ± 0.49 | -1.73 ± 0.42
CAGGAGCAAUAUUACGUCGU |  | -1.97 ± 0.37
CAGGAGCAAUAUUACGUUAA | -3.28 ± 0.43 | -2.66 ± 0.26
CAGGAGCAAUAUUACGUUAG | -1.45 ± 0.084 | -0.918 ± 0.12
CAGGAGCAAUAUUACGUUCA | -2.89 ± 0.12 | -3.54 ± 0.2
CAGUAGCAAUAUUACGAACU | -1.4 ± 0.22 | -1.05 ± 0.17
CAGUAGCAAUAUUACGACAC | -2.36 ± 0.22 | -1.28 ± 0.23
CAGUAGCAAUAUUACGACAG | -0.798 ± 0.093 | -0.214 ± 0.12
CAGUAGCAAUAUUACGACGG | -0.119 ± 0.085 | 0.411 ± 0.11
CAGUAGCAAUAUUACGAGCG | -0.475 ± 0.087 | 0.263 ± 0.12
CAGUAGCAAUAUUACGAGGG | -2.85 ± 0.13 | -4.18 ± 0.46
CAGUAGCAAUAUUACGAUAC | -3.55 ± 0.36 | -2.51 ± 0.41
CAGUAGCAAUAUUACGAUCG | 0.0663 ± 0.15 | 0.475 ± 0.17
CAGUAGCAAUAUUACGCCAU | -0.742 ± 0.18 | -2.87 ± 0.47
CAGUAGCAAUAUUACGCCUA | -0.488 ± 0.14 | -0.218 ± 0.15
CAGUAGCAAUAUUACGCGAA | -4.22 ± 0.43 | -2.8 ± 0.31
CAGUAGCAAUAUUACGCGUC | -4.24 ± 0.31 | -2.83 ± 0.24
CAGUAGCAAUAUUACGGACC | -2.15 ± 0.36 | 
CAGUAGCAAUAUUACGGCAA | -3.53 ± 0.39 | -1.86 ± 0.27
CAGUAGCAAUAUUACGGGCA | -3.05 ± 0.27 | -2.35 ± 0.25
CAGUAGCAAUAUUACGGGCC | -2.57 ± 0.31 | -2.19 ± 0.3
CAGUAGCAAUAUUACGGUAU | -3.79 ± 0.27 | -3.02 ± 0.28
CAGUAGCAAUAUUACGGUCU | -3.35 ± 0.15 | -1.89 ± 0.14
CAGUAGCAAUAUUACGGUUG | -1.52 ± 0.065 | -0.838 ± 0.083

Sequence | self-splicing fitness (ln) (30 °C) | self-splicing fitness (ln) (37 °C)
CAGUAGCAAUAUUACGUAAC |  | -0.919 ± 0.33
CAGUAGCAAUAUUACGUUAG | -1.32 ± 0.072 | 0.119 ± 0.096
CAGUAGCAAUAUUACGUUCU |  | -1.41 ± 0.2
CAUAAGCAAUAUUACGAACU | -2.47 ± 0.23 | -2.69 ± 0.29
CAUAAGCAAUAUUACGCGUA | -1.76 ± 0.11 | -2.02 ± 0.16
CAUAAGCAAUAUUACGGACC | -3.27 ± 0.31 | -3.87 ± 0.23
CAUAAGCAAUAUUACGGGUU | -3.37 ± 0.21 | -3.73 ± 0.24
CAUAAGCAAUAUUACGGUGG | -1.24 ± 0.075 | -0.683 ± 0.088
CAUAAGCAAUAUUACGGUGU | -3.84 ± 0.15 | -2.38 ± 0.14
CAUAAGCAAUAUUACGUGAU | -3.26 ± 0.16 | -2.41 ± 0.16
CAUAAGCAAUAUUACGUUGC | -4.07 ± 0.3 | -3.3 ± 0.3
CAUAAGCAAUAUUACGUUUU | -4.55 ± 0.22 | -2.54 ± 0.15
CAUCAGCAAUAUUACGAAUU | -1.2 ± 0.11 | -1.55 ± 0.14
CAUCAGCAAUAUUACGAGGG | -2.04 ± 0.13 | -0.928 ± 0.12
CAUCAGCAAUAUUACGAUGU | -3.52 ± 0.15 | -2.58 ± 0.15
CAUCAGCAAUAUUACGCACU | -1.99 ± 0.092 | -1.17 ± 0.098
CAUCAGCAAUAUUACGCAUA | -1.59 ± 0.089 | -0.647 ± 0.1
CAUCAGCAAUAUUACGCCCC | -1.56 ± 0.21 | 
CAUCAGCAAUAUUACGCCUA | -1.55 ± 0.1 | -1.03 ± 0.1
CAUCAGCAAUAUUACGCGAC | -4.17 ± 0.29 | -2.92 ± 0.22
CAUCAGCAAUAUUACGCGUA | -0.586 ± 0.089 | -0.774 ± 0.083
CAUCAGCAAUAUUACGCUAU | -2.87 ± 0.13 | -2.64 ± 0.2
CAUCAGCAAUAUUACGCUCC | -2.75 ± 0.24 | -2.3 ± 0.28
CAUCAGCAAUAUUACGGACA | -0.235 ± 0.21 | -1.16 ± 0.15
CAUCAGCAAUAUUACGGAGG | -1.24 ± 0.12 | -0.916 ± 0.14

Sequence | self-splicing fitness (ln) (30 °C) | self-splicing fitness (ln) (37 °C)
CAUCAGCAAUAUUACGGCUC | -1.91 ± 0.1 | -1.1 ± 0.12
CAUCAGCAAUAUUACGGCUG | -1.76 ± 0.11 | -0.0705 ± 0.16
CAUCAGCAAUAUUACGGGAC | -3.95 ± 0.46 | -2.51 ± 0.22
CAUCAGCAAUAUUACGGUCG | 0.0182 ± 0.075 | 0.236 ± 0.093
CAUCAGCAAUAUUACGGUUC | -2.65 ± 0.14 | -0.935 ± 0.13
CAUCAGCAAUAUUACGGUUU | -2.29 ± 0.079 | -0.832 ± 0.094
CAUCAGCAAUAUUACGUACU | -2.68 ± 0.18 | -1.65 ± 0.22
CAUCAGCAAUAUUACGUCAA | -3.09 ± 0.15 | -2.38 ± 0.15
CAUCAGCAAUAUUACGUCCU | -3.78 ± 0.22 | -1.91 ± 0.22
CAUCAGCAAUAUUACGUCUU | -3.53 ± 0.14 | -2.19 ± 0.12
CAUGAGCAAUAUUACGAAAA | -3.45 ± 0.34 | -1.22 ± 0.2
CAUGAGCAAUAUUACGAACA |  | -2 ± 0.32
CAUGAGCAAUAUUACGAAUC |  | -2.57 ± 0.42
CAUGAGCAAUAUUACGACGC | -3.01 ± 0.23 | -1.99 ± 0.3
CAUGAGCAAUAUUACGAGUC | -4.56 ± 0.28 | -3.27 ± 0.22
CAUGAGCAAUAUUACGCAAC | -1.07 ± 0.29 | -1.69 ± 0.43
CAUGAGCAAUAUUACGCCAU | -3.43 ± 0.3 | 
CAUGAGCAAUAUUACGCCCU |  | -1.18 ± 0.27
CAUGAGCAAUAUUACGCCGC | -3.56 ± 0.2 | -2.71 ± 0.22
CAUGAGCAAUAUUACGCCUU | -3.02 ± 0.26 | -1.86 ± 0.24
CAUGAGCAAUAUUACGGAGG | -3 ± 0.14 | -2.16 ± 0.18
CAUGAGCAAUAUUACGGAUA | -3.32 ± 0.22 | -1.68 ± 0.24
CAUGAGCAAUAUUACGGAUC |  | -2.94 ± 0.33
CAUGAGCAAUAUUACGGAUG | -3.02 ± 0.31 | -2.01 ± 0.26
CAUGAGCAAUAUUACGGCAC |  | -1.42 ± 0.3
